Data from US20250084155A1 (University of Texas, published 2025).
Changes are numbered by the printed parent chain.

B1: h77A-1.98 (antibody, V domains shown)
VH: QIQLVQSGAEVKKPGASVKVSCKASGYTFTNYGMNWVRQAPGQGLEWMGWINTYTGEPTYADDFKGRFTMTTDTSTSTAYMELRSLRSDDTAVYFCARYDHAMDYWGQGTLVTVSS
VL: EIVLTQSPDSLAVSLGERATINCKSSQSLLNSGTRKNYLAWYQQKAGQSPKLLIYWTSTRESGVPDRFSGSGSGTDFTLTIDSLQAEDVAVYYCKQSYTLYTFGGGTKVEIK
notes: captured by anti-human Fc
B2: h77A-4 (antibody, V domains shown)
VH: B1 VH with M70F
VL: DIQMTQSPSSLSASVGDRVTITCKSSQSLLNSGTRKNYLAWYQQKPGKVPKLLIYWTSTRESGVPSRFSGSGSGTDFTLTISSLQPEDVATYYCKQSYTLYTFGGGTKLEIK
B3: h77A-7 (antibody, V domains shown)
VH: B1 VH with A16S, M70F, T72A, T74E, R84S, D89E
VL: B1 VL with E1D, L4M, A12S, A46P, S49P, K51R, D82N, S83T, G105Q, V109L
B4: h77A-10 (antibody, V domains shown)
VH: B1 VH with A16S, M70F, T72A, T74E, R84S, D89E
VL: B1 VL with E1D, L4M, A46P, D82S, V109L
B5: h77A-11 (antibody, V domains shown)
VH: QVQLQQSGPEVKKPGASVKISCKTSGYTFTNYGMNWVRQAPGQGLEWMGWINTYTGEPTYADDFKGRVTMTTDTSTSTAYLELTGLMSDDTAVYFCARYDHAMDYWGQGTTVTVSS
VL: B1 VL
B6: h77A-3 (antibody, V domains shown)
VH: B1 VH with M70F
VL: B1 VL with E1D, I2V, L4M, A19V, A46P, D82S, G105Q, V109L
B7: h77A-14 (antibody, V domains shown)
VH: B5 VH
VL: B2 VL
B8: h77A-5 (antibody, V domains shown)
VH: B1 VH with M70F
VL: B1 VL with E1D, L4M, A46P, D82S, V109L
B9: h77A-9 (antibody, V domains shown)
VH: B1 VH with A16S, M70F, T72A, T74E, R84S, D89E
VL: B2 VL
B10: h77A-2 (antibody, V domains shown)
VH: B1 VH with M70F
VL: B1 VL with E1D, L4M, A12S, A46P, S49P, K51R, D82N, S83T, G105Q, V109L
B11: h77A-21 (antibody, V domains shown)
VH: B1 VH with A9P, A16E, Q43K, F68V, M70I, T72R, T76A, R84S, D89E, L111S
VL: B1 VL
B12: h77A-6 (antibody, V domains shown)
VH: B1 VH with A16S, M70F, T72A, T74E, R84S, D89E
VL: B1 VL

The binders below were run against T1, HSP70 (human HSP70; the antigen of the binning, humanization and variant binding assays) (human, UniProt P0DMV8 1-641, limits assumed) (assay: BLI, anti-human Fc capture, antigen 100 nM).
T1 construct: also called hu HSP70
Method: Binding assays were performed as follows. Antibody variants were immobilized using anti-human Fc onto the surface of a series of biosensors at […]. Antigen, at 100 nM, was passed over the surface to generate a binding response. Binding data for the antibody:antigen interactions were collected at 25° C. on the biosensors. In Table 14, X=610 represents captured antigen value (nM) at the beginning of the dissociation phase (measured at 610 seconds after the biosensor was initially contacted with antigen) and X=1495 represents captured antigen value (nM) at the end of the dissociation phase (measured at 1495 seconds after the biosensor was initially contacted with antigen). In Table 14, antibodies with an X=610 value greater than 0.2 and a % dissociation less than 10% are shown in bold.

T1 sequence (P0DMV8 whole entry, change not shown): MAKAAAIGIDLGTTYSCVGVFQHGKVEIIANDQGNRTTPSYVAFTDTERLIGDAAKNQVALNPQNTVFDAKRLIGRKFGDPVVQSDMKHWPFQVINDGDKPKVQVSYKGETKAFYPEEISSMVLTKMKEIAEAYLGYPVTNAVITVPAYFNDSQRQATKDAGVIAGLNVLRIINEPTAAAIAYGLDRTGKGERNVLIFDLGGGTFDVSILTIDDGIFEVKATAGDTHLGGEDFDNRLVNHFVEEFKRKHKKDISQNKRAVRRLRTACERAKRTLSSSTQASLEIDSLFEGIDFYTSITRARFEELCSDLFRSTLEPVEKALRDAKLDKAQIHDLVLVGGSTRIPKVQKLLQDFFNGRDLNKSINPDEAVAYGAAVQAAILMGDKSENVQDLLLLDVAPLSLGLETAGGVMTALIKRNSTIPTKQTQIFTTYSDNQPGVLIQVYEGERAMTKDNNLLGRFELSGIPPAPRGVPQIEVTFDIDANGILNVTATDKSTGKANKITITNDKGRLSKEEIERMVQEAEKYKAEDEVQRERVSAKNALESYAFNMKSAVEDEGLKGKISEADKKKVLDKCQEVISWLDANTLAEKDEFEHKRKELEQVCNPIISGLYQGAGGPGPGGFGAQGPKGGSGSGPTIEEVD

Row | % Diss [%] | Binder
1 | 34.5 | B1

Each binder was assayed against T1, HSP70 (human HSP70; the antigen of the …) (assay: BLI, antibody on sensor).
Method: Humanized variants were characterized for binding using biolayer interferometry (BLI). Chimeric antibodies including the murine 77A antigen binding region and human Fe regions were also tested. Antibodies and reagents were diluted out onto microwell plates and loaded into the instrument. Diluted antibodies were first immobilized onto dip-and-read sensors, and then measurements for baselines were acquired. Subsequently, the sensors were dipped into wells containing the antigen in solution, or buffer alone. The change in number of molecules bound to the sensor was quantified by measurement of the shift in the interference pattern of light during each step of the protocol. Mathematical modeling was performed based on those values and the concentrations of reagents used in the assay and used to calculate kinetics values.

Row | Kd [nM] | koff [s⁻¹] | kon [M⁻¹ s⁻¹] | Binder
2 | 7.66 | 0.000287 | 37400 | B2
3 | 10 | 0.000488 | 48700 | B3
4 | 7.1 | 0.000409 | 57700 | B4
5 | 4.23 | 0.000189 | 44600 | B5
6 | 4.9 | 0.000305 | 62300 | B6
7 | 15 | 0.000616 | 41100 | B7
8 | 6.87 | 0.000353 | 51400 | B8
9 | 8.89 | 0.000348 | 39200 | B9
10 | 5.13 | 0.000308 | 59900 | B10
11 | 13.1 | 0.000545 | 41700 | B11
12 | 2.64 | 0.00014 | 53100 | B12
